Source: US20130052130A1

Experiments:
TAG-72 = assay: competition assay, single aliquots; antigen and competitor not stated
BSM = assay: competition ELISA, BSM-coated plate; competitor is mCC49 at 0.033 ug/mL

Question: For CC49 Fab′-NEM, which Relative Affinity Constant (Ka) (relative to Fab′-NEM defined as 1.0) (TAG-72) is on record?
Answer: 1

Question: And the I1/2 fold relative to F(ab′)2 (fold (× the I1/2 of F(ab′)2)) (BSM)?
Answer: 40

Question: With CC49 Fab′-dPEG12-Tris(dPEG12 acid)3 as the substance, how does the Relative Affinity Constant (Ka) (relative to Fab′-NEM defined as 1.0) (TAG-72) read?
Answer: 0.3

Question: “CC49 Fab′-dPEG12-Tris(dPEG12-Tris(m-dPEG11)3)3” was tested. Which Relative Affinity Constant (Ka) (relative to Fab′-NEM defined as 1.0) (TAG-72) did it give?
Answer: 0.4

Question: For CC49 Fab′-dPEG12-Tris(dPEG24 acid)3, which Relative Affinity Constant (Ka) (relative to Fab′-NEM defined as 1.0) (TAG-72) is on record?
Answer: 1

Question: What about the I1/2 fold relative to F(ab′)2 (fold (× the I1/2 of F(ab′)2)) (BSM) of the same substance?
Answer: 40

Question: Which Relative Affinity Constant (Ka) (relative to Fab′-NEM defined as 1.0) (TAG-72) does the source give for CC49 Fab′-dPEG12-Tris(m-dPEG24)3 here?
Answer: 0.3
